Data as given in US20130052176, “APTAMER FOR NGF AND USE THEREOF” (SHIONOGI & CO., LTD, published 2013).

Columns and labels:
Conditions in all cases: tags: amine-coupled to CM5 chip in SPR; soluble in cell assays; chain copies: 2
[1] = target: T1, NGF (nerve growth factor) (human, UniProt P01138 P01138:122-241); assay: cell_activity; neurite outgrowth, NGF 0.38 nM; SPR binding; TF-1 IC50 0.074 nM
Description: (§1) The neurite outgrowth inhibitory activity of the aptamer obtained in Example 1 was evaluated by using Neuroscreen-1 cell, which is a subclone of PC-12 cells.
(§2) The cells (2500 cells per well) were cultured for one day in an RPMI-1640 medium containing 2.5% horse serum and 1.25% fetal bovine serum in a 96 well flat-bottom plate coated with collagen type IV. […] Two days later, the cytoplasm and nuclei were stained using Cellomics Neurite Outgrowth Kit (manufactured by Thermo Scientific), and neurite length per cell was measured by Cellomics ArrayScan VTI (manufactured by Thermo Scientific). With the neurite length per cell obtained by the addition of NGF alone as inhibitory activity 0%, and that of the cell obtained by NGF free culture for 2 days as inhibitory activity 100%, the inhibitory activity of the aptamer was calculated from the neurite length per cell obtained by culturing with the addition of NGF and the aptamer in mixture. When the inhibitory activity was 0% or below, ‘0%’ is indicated.

[2] = target: T1, NGF (nerve growth factor); assay: cell_activity; neurite outgrowth, NGF 0.38 nM; SPR binding; TF-1 IC50 0.110 nM
Description: as §1, §2

[3] = target: T1, NGF (nerve growth factor); assay: cell_activity; neurite outgrowth, NGF 0.38 nM; SPR binding; TF-1 IC50 0.186 nM
Description: as §1, §2

[4] = target: T1, NGF (nerve growth factor); assay: cell_activity; neurite outgrowth, NGF 0.38 nM; not tested by SPR; TF-1 IC50 0.051 nM
Description: as §1, §2

[5] = target: T1, NGF (nerve growth factor); assay: cell_activity; neurite outgrowth, NGF 0.38 nM; not tested by SPR; TF-1 IC50 0.520 nM
Description: as §1, §2

[6] = target: T1, NGF (nerve growth factor); assay: cell_activity; neurite outgrowth, NGF 0.38 nM; SPR binding; TF-1 IC50 0.061 nM
Description: as §1, §2

[7] = target: T1, NGF (nerve growth factor); assay: cell_activity; neurite outgrowth, NGF 0.38 nM; SPR binding; TF-1 IC50 0.120 nM
Description: as §1, §2

[8] = target: T1, NGF (nerve growth factor); assay: cell_activity; neurite outgrowth, NGF 0.38 nM; SPR binding; TF-1 IC50 0.062 nM
Description: as §1, §2

[9] = target: T1, NGF (nerve growth factor); assay: cell_activity; neurite outgrowth, NGF 0.38 nM; SPR binding; TF-1 IC50 0.09 nM
Description: as §1, §2

[10] = target: T1, NGF (nerve growth factor); assay: cell_activity; neurite outgrowth, NGF 0.38 nM; SPR binding; TF-1 IC50 0.105 nM
Description: as §1, §2

[11] = target: T1, NGF (nerve growth factor); assay: cell_activity; neurite outgrowth, NGF 0.38 nM; SPR binding; TF-1 IC50 0.100 nM
Description: as §1, §2

[12] = target: T1, NGF (nerve growth factor); assay: cell_activity; neurite outgrowth, NGF 0.38 nM; SPR binding; TF-1 IC50 0.081 nM
[13] = target: T1, NGF (nerve growth factor); assay: cell_activity; neurite outgrowth, NGF 0.38 nM; SPR binding; TF-1 IC50 <0.1 nM
Description: as §1, §2

[14] = target: T1, NGF (nerve growth factor); assay: cell_activity; neurite outgrowth, NGF 0.38 nM; SPR binding; TF-1 IC50 0.073 nM
Description: as §1, §2

[15] = target: T1, NGF (nerve growth factor); assay: cell_activity; neurite outgrowth, NGF 0.38 nM; SPR binding; TF-1 IC50 0.119 nM
Description: as §1, §2

T1 sequence (P01138 122-241, one chain of several): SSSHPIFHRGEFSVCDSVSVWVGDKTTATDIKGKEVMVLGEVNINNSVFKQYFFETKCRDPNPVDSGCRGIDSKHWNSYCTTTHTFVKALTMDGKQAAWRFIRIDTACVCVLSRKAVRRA

B1: aptamer ID 26(13) (ssRNA)
RNA: GGGAGACUCGCCAGAGUUGAAAGAAACCCAAAUAAGUGUGCGCAC
modifications: 2'-F pyrimidines; 2'-OMe purines except 2'-OH at 3,5,19,20,22,24,26; 5' idT and 3' idT
IC50 [1]: 0.039 nM

GGGAGACUCGCCAGAGUUGAAAGAAACCCAAAUAAGUGUGCGCAC (ssRNA, 2'-F pyrimidines; 2'-OMe purines except 2'-OH at 3,19,20,24; 5' idT and 3' idT) [aptamer ID 26(20)]
IC50 [2]: 0.016 nM

B2: aptamer ID 26(22) (mixed)
RNA: B1 RNA
modifications: 2'-F pyrimidines except dT at 8; 2'-OMe purines except 2'-OH at 3,19,20,26; 5' idT and 3' idT
IC50 [3]: 0.293 nM

B3: aptamer ID 26(64) (ssRNA)
RNA: B1 RNA
modifications: 2'-F pyrimidines except 2'-OMe at 7,8,9,11,12,17,18,33,37,39,45; 2'-OMe purines except 2'-OH at 3,19,20,26; 5' PEG80TS4 (ssH linker); 3' idT
IC50 [4]: 0.102 nM

B4: aptamer ID 26(66) (ssRNA)
RNA: B1 RNA
modifications: 2'-F pyrimidines; 2'-OMe purines except 2'-OH at 3,19,20,26; 5' PEG40GS2 (ssH linker); 3' idT
IC50 [5]: 0.252 nM

B5: aptamer ID 26(44) (ssRNA)
RNA: B1 RNA
modifications: 2'-F pyrimidines except 2'-OMe at 7,11,12,17,33,45; 2'-OMe purines except 2'-OH at 3,19,20,26; 5' idT and 3' idT
IC50 [6]: 0.074 nM

B6: aptamer ID 26(62) (ssRNA)
RNA: B1 RNA
modifications: 2'-F pyrimidines except 2'-OMe at 7,8,9,11,12,17,18,33,37,45; 2'-OMe purines except 2'-OH at 3,19,20 and LNA at a26; 5' idT and 3' idT
IC50 [7]: 0.228 nM

B7: aptamer ID 26(49) (ssRNA)
RNA: B1 RNA
modifications: 2'-F pyrimidines except 2'-OMe at 7,8,9,11,12,17,18,33,37,45; 2'-OMe purines except 2'-OH at 3,19,20,26; 5' idT and 3' idT
IC50 [8]: 0.059 nM

B8: aptamer ID 26(14) (ssRNA)
RNA: B1 RNA
modifications: 2'-F pyrimidines; 2'-OMe purines except 2'-OH at 3,5,19-21,24,26; 5' idT and 3' idT
IC50 [9]: 0.082 nM

GGGAGACUCGCCAGAGUUGAAAGAAACCCAAAUAAGUGUGCGCAC (ssRNA, 2'-F pyrimidines; 2'-OMe purines except 2'-OH at 3,19,20; 5' idT and 3' idT) [aptamer ID 26(18)]
IC50 [10]: 0.084 nM

B9: aptamer ID 26(41) (mixed)
RNA: B1 RNA
modifications: 2'-F pyrimidines except dC at 29 and dT at 37; 2'-OMe purines except 2'-OH at 3,19,20,26; 5' idT and 3' idT
IC50 [11]: 0.104 nM

B10: aptamer ID 26(15) (ssRNA)
RNA: B1 RNA
modifications: 2'-F pyrimidines; 2'-OMe purines except 2'-OH at 3,5,19,20,24,26; 5' idT and 3' idT
IC50 [12]: 0.067 nM

B11: aptamer ID 26(38) (ssRNA)
RNA: B1 RNA
modifications: 2'-F pyrimidines except 2'-OMe at 7; 2'-OMe purines except 2'-OH at 3,19,20,26; PS between 20 and 21; 5' idT and 3' idT
IC50 [13]: 0.145 nM

B12: aptamer ID 26(42) (mixed)
RNA: B1 RNA
modifications: 2'-F pyrimidines except dC at 9,29 and dT at 33,37; 2'-OMe purines except 2'-OH at 3,19,20,26; 5' idT and 3' idT
IC50 [14]: 0.083 nM

B13: aptamer ID 26(63) (mixed)
RNA: B1 RNA
modifications: 2'-F pyrimidines except 2'-OMe at 7,8,9,11,12,17,18,33,37,39,45 and dC at 27,29; 2'-OMe purines except 2'-OH at 3,19,20,26; 5' idT and 3' idT
IC50 [15]: 0.139 nM
